Results as given in article PMC5703901, “Rational design of cholesterol oxidase for efficient bioresolution of cholestane skeleton substrates” (Scientific Reports, 2017).

Tests used:
Test in all cases: peroxidase-coupled 4-aminoantipyrine/phenol H2O2 assay, OD500
Type in all cases: biochemical, Pimelobacter simplex
Settings in all cases: 25 mM phosphate pH 7.5, isopropanol and Triton X-100, temperature not stated for kinetics
[1] = substrate: CC(C)CCC[C@@H](C)[C@H]1CC[C@H]2[C@@H]3CC=C4C[C@@H](O)CC[C@]4(C)[C@H]3CC[C@]12C
Source text: (§1) peroxidase-coupled 4-aminoantipyrine/phenol H2O2 assay, OD500 on PsChO

[2] = substrate: [H][C@@]12CC=C3C[C@@H](O)CC[C@]3(C)[C@@]1([H])CC[C@@]1(C)[C@@]2([H])CC[C@]1([H])C(C)=O
Source text: as §1

[3] = substrate: CC[C@H](/C=C/[C@@H](C)[C@H]1CC[C@H]2[C@@H]3CC=C4C[C@@H](O)CC[C@]4(C)[C@H]3CC[C@]12C)C(C)C
Source text: as §1

[4] = substrate: [H][C@@]12CC=C3C[C@@H](O)CC[C@]3(C)[C@@]1([H])CC[C@@]1(C)[C@@]2([H])CC[C@]1([H])[C@H](C)CC[C@@H](CC)C(C)C
Source text: as §1

[5] = substrate: C[C@]12CC[C@H](O)CC1=CC[C@@H]1[C@@H]2CC[C@]2(C)C(=O)CC[C@@H]12
Source text: as §1

Protein | Km [1] [µM] | kcat [1] [s⁻¹] | kcat/Km [1] [M⁻¹ s⁻¹] | Km [2] [µM] | kcat [2] [s⁻¹] | kcat/Km [2] [M⁻¹ s⁻¹] | Km [3] [µM] | kcat [3] [s⁻¹] | kcat/Km [3] [M⁻¹ s⁻¹] | Km [4] [µM] | kcat [4] [s⁻¹] | kcat/Km [4] [M⁻¹ s⁻¹] | Km [5] [µM] | kcat [5] [s⁻¹] | kcat/Km [5] [M⁻¹ s⁻¹]
PsChO (Pimelobacter simplex; V115C) (protein, wild-type gene in pET28a(+), E. coli BL21(DE3), His6-tagged, Ni-NTA purified; noncovalent FAD type; catalytic H431, E346, N469) VLVIGTGYGGAVAALRLAQAGVQVEMIEMGMSWDTPGSDGKIFAKVTSPDKRAYWLRTKTKAPCSNFFGFPIDATIPKYTGILDAEEFAGITVYQGRGVGGGSLVNGGMAVTPKQSRFSSILPSVDAAEMYATYYPRANAGLGVGSIDPAWFETAECYKYARVGRKHAQRSGFAWTFVPDVYDWNYMKAEQAGTVTRSALDGQVMYGNDHGKKSLVQTYLAQALATGRVNVSTLHQVTAVAPRSGGGYTVSIDQLDTSGNVVGTKSVTAGKVFFAAGSVGTSKLLTKLKATGSLPALNNEIGKGWGDNGNVMCGRANHMWDPTGSLQSTIPCSGIDNWDAGGAFAEVAPLPTGIETYASLYLSITNTTRRAEFSWNAAANKVDLSWQTAWKQDSINMAKTIFDKINSKEGTIYRTDLFGAYKVWQDGLTYHPLGGAVLNKATDNYGRLHGYNGLYVIDGALIPGNTTVNPFVTITALAERNIDNILANDI | 178.31 ± 1.38 | 23 ± 0.29 | 130000 ± 500 | 228.42 ± 3.24 | 13.7 ± 0.31 | 60000 ± 600 | 528.84 ± 3.59 | 4.23 ± 0.19 | 8000 ± 200 | 220.76 ± 3.14 | 13.2 ± 0.36 | 60000 ± 700 | 318.81 ± 3.25 | 9.56 ± 0.34 | 30000 ± 500
PsChO (Pimelobacter simplex) (protein, wild-type gene in pET28a(+), E. coli BL21(DE3), His6-tagged, Ni-NTA purified; noncovalent FAD type; catalytic H431, E346, N469) VLVIGTGYGGAVAALRLAQAGVQVEMIEMGMSWDTPGSDGKIFAKVTSPDKRAYWLRTKTKAPVSNFFGFPIDATIPKYTGILDAEEFAGITVYQGRGVGGGSLVNGGMAVTPKQSRFSSILPSVDAAEMYATYYPRANAGLGVGSIDPAWFETAECYKYARVGRKHAQRSGFAWTFVPDVYDWNYMKAEQAGTVTRSALDGQVMYGNDHGKKSLVQTYLAQALATGRVNVSTLHQVTAVAPRSGGGYTVSIDQLDTSGNVVGTKSVTAGKVFFAAGSVGTSKLLTKLKATGSLPALNNEIGKGWGDNGNVMCGRANHMWDPTGSLQSTIPCSGIDNWDAGGAFAEVAPLPTGIETYASLYLSITNTTRRAEFSWNAAANKVDLSWQTAWKQDSINMAKTIFDKINSKEGTIYRTDLFGAYKVWQDGLTYHPLGGAVLNKATDNYGRLHGYNGLYVIDGALIPGNTTVNPFVTITALAERNIDNILANDI | 204.85 ± 3.14 | 12.3 ± 0.32 | 60000 ± 300 | 294.55 ± 2.97 | 11.8 ± 0.34 | 40000 ± 500 | 789.61 ± 4.71 | 1.58 ± 0.07 | 2000 ± 100 | 328.61 ± 3.60 | 9.86 ± 0.35 | 30000 ± 500 | 341.21 ± 3.79 | 6.82 ± 0.14 | 20000 ± 400
PsChO (Pimelobacter simplex; F121V) (protein, wild-type gene in pET28a(+), E. coli BL21(DE3), His6-tagged, Ni-NTA purified; noncovalent FAD type; catalytic H431, E346, N469) VLVIGTGYGGAVAALRLAQAGVQVEMIEMGMSWDTPGSDGKIFAKVTSPDKRAYWLRTKTKAPVSNFFGVPIDATIPKYTGILDAEEFAGITVYQGRGVGGGSLVNGGMAVTPKQSRFSSILPSVDAAEMYATYYPRANAGLGVGSIDPAWFETAECYKYARVGRKHAQRSGFAWTFVPDVYDWNYMKAEQAGTVTRSALDGQVMYGNDHGKKSLVQTYLAQALATGRVNVSTLHQVTAVAPRSGGGYTVSIDQLDTSGNVVGTKSVTAGKVFFAAGSVGTSKLLTKLKATGSLPALNNEIGKGWGDNGNVMCGRANHMWDPTGSLQSTIPCSGIDNWDAGGAFAEVAPLPTGIETYASLYLSITNTTRRAEFSWNAAANKVDLSWQTAWKQDSINMAKTIFDKINSKEGTIYRTDLFGAYKVWQDGLTYHPLGGAVLNKATDNYGRLHGYNGLYVIDGALIPGNTTVNPFVTITALAERNIDNILANDI | 154.83 ± 3.31 | 15.5 ± 0.3 | 100000 ± 400 | 190.61 ± 3.30 | 15.2 ± 0.22 | 80000 ± 400 | 384.12 ± 3.84 | 7.68 ± 0.27 | 20000 ± 200 | 178.42 ± 1.61 | 16.1 ± 0.33 | 90000 ± 800 | 273.52 ± 2.13 | 13.7 ± 0.2 | 50000 ± 600
